Test results published in PMC11480083.

What was measured:
[1] = test system: O=C(c1ccc(O)cc1O)c1ccc(O)cc1O; experiment: purified protein; details: 4 mM UDP-Glc, 100 mM Kpi pH 8.0, 30 °C
[2] = substrate: O=C(c1ccc(O)cc1O)c1ccc(O)cc1O; experiment: steady-state kinetics, HPLC; type: biochemical, Gardenia jasminoides; details: UDP-Glc donor
purified protein = substrate: O=C(c1ccc(O)cc1O)c1ccc(O)cc1O; experiment: purified protein
[3] = substrate: O=C(c1ccc(O)cc1O)c1ccc(O)cc1O; experiment: steady-state kinetics, HPLC; type: biochemical, Citrus japonica; details: UDP-Glc donor
[4] = substrate: O=C(c1ccc(O)cc1O)c1ccc(O)cc1O; experiment: steady-state kinetics, HPLC; type: biochemical, Nelumbo nucifera; details: UDP-Glc donor

MiCGT (Mangifera indica)
Km [1]: 430 ± 155 µM
kcat [1]: 0.00848 ± 0.00147 s⁻¹

MiCGT (Mangifera indica; E152Q)
Km [1]: 176 ± 25 µM

MiCGT (Mangifera indica; E152Q/S122P/V190D)
Km [1]: 36 ± 3 µM
kcat [1]: 0.1579 ± 0.00172 s⁻¹

MiCGT (Mangifera indica; E152Q/V190D)
Km [1]: 189 ± 21 µM

MiCGT (Mangifera indica; M148A)
Km [1]: 269 ± 49 µM

MiCGT (Mangifera indica; M148A/S121D/V190T)
Km [1]: 249 ± 30 µM
kcat [1]: 0.51143 ± 0.0157 s⁻¹

MiCGT (Mangifera indica; M148A/V190T)
Km [1]: 317 ± 100 µM

B1: GjGTa (Gardenia jasminoides; A142M/F116S/F117P) (protein)
chain: MENTLVLYPAPGIGHMISMLELAKLILRHYSNKFSRIHILINTGFRDMKSTYLDHISSTNPSIVVHQFPFIQADLSSSLSPPAIGFKFIRKNAPNVHHALQEISKTSSIRALIIDSPCTSAMPYSNNLGIPVYYFFTSGAAMVALFLYFPTIHKQTSESFKDLVQTKFDVPGLPPIPATQMPEPVLDRDDPAYDDILYYSVHLPKSSGIIVNTFDELEPIALKAITDGLCVPDAPTPPLYNIGPLIADADSRPAIDGDKGIDLDQSDCFSWLDRQPDQCVVFLCFGSRGTFSVEQIKEIAKGLERSGKRFLWVVKKPLRNNKSKQVEGSGGFEIDSILPERFLEKTKGIGLVVKSWIPQLQVLRHPAVGGFVTHCGWNSTLEAVVAGVPLVAWPLHAEQHVNMAALVQDMKMAIPVEQGDDGIVRGEEVEKRVRELMDSERGRELRKLSQKTRDIAAESGVHLGSSSTALASLIHVVFGN
Km [2]: 12 ± 0.5 µM
kcat [2]: 0.00035 ± 1.2e-06 s⁻¹

B2: FcCGT (Citrus japonica; A189D/T149Q) (protein)
chain: MSDSGGFDSHPHVALIPSAGMGHLTPFLRLAASLVQHHCRVTLITTYPTVSLAETQHVSHFLSAYPQVTEKRFHLLPFDPNSANATDPFFLRWEAIRRSAHLLAPLLSPPLSALITDVTLISAVLPVTINLHLPNYVLFTASARMFSLQASFPAIVASKSTSSGSVEFDDDFIEIPGLPPIPLSSVPPDVMDSKSLFATSFLENGNSFVKSNGVLINSFDALEADTLVALNGRRVVAGLPPVYAVGPLLPCEFEKRDDPSTSLILKWLDDQPEGSVVYVSFGSRLALSMEQTKELGNGLLSSGCRFLWVVKGKTVDKEDEESLKNVLGHELMEKIKDQGLVVKNWVDQDKVLSHRAVGGFVSHGGWNSLVEAARHGVPVLVWPQFGDQKINAEAVESAGLGMWVRSWGWGTELRAKGDEIGLKIKDLMANDFLREQAKRIEEEARKAIGVGGSSERTFKELIDKWKCNNNTH
Km (purified protein): 375 ± 72 µM
kcat (purified protein): 0.04075 ± 0.0016 s⁻¹

B3: FcCGT (Citrus japonica; M145A/V118D) (protein)
chain: MSDSGGFDSHPHVALIPSAGMGHLTPFLRLAASLVQHHCRVTLITTYPTVSLAETQHVSHFLSAYPQVTEKRFHLLPFDPNSANATDPFFLRWEAIRRSAHLLAPLLSPPLSALITDDTLISAVLPVTINLHLPNYVLFTASARAFSLTASFPAIVASKSTSSGSVEFDDDFIEIPGLPPIPLSSVPPAVMDSKSLFATSFLENGNSFVKSNGVLINSFDALEADTLVALNGRRVVAGLPPVYAVGPLLPCEFEKRDDPSTSLILKWLDDQPEGSVVYVSFGSRLALSMEQTKELGNGLLSSGCRFLWVVKGKTVDKEDEESLKNVLGHELMEKIKDQGLVVKNWVDQDKVLSHRAVGGFVSHGGWNSLVEAARHGVPVLVWPQFGDQKINAEAVESAGLGMWVRSWGWGTELRAKGDEIGLKIKDLMANDFLREQAKRIEEEARKAIGVGGSSERTFKELIDKWKCNNNTH
Km [3]: 1064 ± 151 µM
kcat [3]: 0.05323 ± 0.00218 s⁻¹

B4: NnGT (Nelumbo nucifera; C156Q/L197D/S126P) (protein)
chain: MEMSSSSDLQILPPHVALLPSSGMGHLVPFVRLAAALARRNCLVTFITTHPTVSLSESRLVSRLLSAFPHVTPLEFHLLPLDHSTANSKDPFFLQFEAIRRSAHLLSPLLSSCSDPPLSALITDVPLASAFISITDELRLPNYILFTSSAWMLSLQLNFPTFVVNTSTNLSGGSATASDDIEIPGVPPVPKSWLPPDLLDLSNLFTTQFMANGQELIKSNGILINTFGNAEQATVAALNEGKVVNGLPPVTKIGPLAPCEFEKGSSVEWLDGQPAGSVLYVSFGSRTAMSREQIRELGDGLVRSGCRFLWVVKDKKVDREDEEELGGIVGQELMERMKDNGLVVKNWVDQGVVLAHPAVGGFLSHCGWNSVTEAAWNGVPVLAWPQHGDQSINAQVMEKSGIGMWVKSWGWGRTEVVKGEEIGQKIGEMMGNDRLKAQAANIREESRRAVEVGGGSYKELEGIIEKWKISRI
Km [4]: 319 ± 61 µM
kcat [4]: 0.00872 ± 0.000567 s⁻¹
